Experimental data reported in paper PMC8086355, “The unusual structure of the PiggyMac cysteine-rich domain reveals zinc finger diversity in PiggyBac-related transposases”.

Legend:
[1] = target: H3(1–19)K4me3-b (Paramecium tetraurelia); assay: ELISA; C-terminally biotinylated peptides (4 μM) on streptavidin-coated plates; purified MBP or MBP-CRD fusions (10 to ~100 nM) in buffer C (25 mM Tris pH 7.4, 150 mM NaCl, 0.1% BSA, 0.05% Tween 20), 4 °C overnight; anti-MBP-HRP, absorbance at 450 nm
[2] = target: Pgm(692–768)* (Paramecium tetraurelia); assay: NMR titration; 100 μM 15N-Pgm(692–768)* titrated with 50 to 1000 μM H3(1–19), 1H-15N HSQC at 800 MHz, 5 mM HEPES pH 6.8, 25 mM NaCl, 20 °C; apparent KD from the chemical shift perturbations of E739, assuming 1:1 binding; 1H-1H TOCSY on the final titration point
MBP-Pgm = target: T1, MBP-Pgm (Paramecium tetraurelia, UniProt A0DFJ7 1-1065); assay: DRaCALA; 400 nM protein; DRaCALA: 25 mM HEPES pH 7.5, 0.1 mg/ml BSA, 0.5 mM DTT, 100 mM NaCl, 25 nM DNA, no competitor, temperature not stated; EMSA: as in earlier paper, 5% acrylamide; conditions: protein: recombinant; tags: N-terminal MBP; label: 32P at 5' end of top strand
T1 sequence: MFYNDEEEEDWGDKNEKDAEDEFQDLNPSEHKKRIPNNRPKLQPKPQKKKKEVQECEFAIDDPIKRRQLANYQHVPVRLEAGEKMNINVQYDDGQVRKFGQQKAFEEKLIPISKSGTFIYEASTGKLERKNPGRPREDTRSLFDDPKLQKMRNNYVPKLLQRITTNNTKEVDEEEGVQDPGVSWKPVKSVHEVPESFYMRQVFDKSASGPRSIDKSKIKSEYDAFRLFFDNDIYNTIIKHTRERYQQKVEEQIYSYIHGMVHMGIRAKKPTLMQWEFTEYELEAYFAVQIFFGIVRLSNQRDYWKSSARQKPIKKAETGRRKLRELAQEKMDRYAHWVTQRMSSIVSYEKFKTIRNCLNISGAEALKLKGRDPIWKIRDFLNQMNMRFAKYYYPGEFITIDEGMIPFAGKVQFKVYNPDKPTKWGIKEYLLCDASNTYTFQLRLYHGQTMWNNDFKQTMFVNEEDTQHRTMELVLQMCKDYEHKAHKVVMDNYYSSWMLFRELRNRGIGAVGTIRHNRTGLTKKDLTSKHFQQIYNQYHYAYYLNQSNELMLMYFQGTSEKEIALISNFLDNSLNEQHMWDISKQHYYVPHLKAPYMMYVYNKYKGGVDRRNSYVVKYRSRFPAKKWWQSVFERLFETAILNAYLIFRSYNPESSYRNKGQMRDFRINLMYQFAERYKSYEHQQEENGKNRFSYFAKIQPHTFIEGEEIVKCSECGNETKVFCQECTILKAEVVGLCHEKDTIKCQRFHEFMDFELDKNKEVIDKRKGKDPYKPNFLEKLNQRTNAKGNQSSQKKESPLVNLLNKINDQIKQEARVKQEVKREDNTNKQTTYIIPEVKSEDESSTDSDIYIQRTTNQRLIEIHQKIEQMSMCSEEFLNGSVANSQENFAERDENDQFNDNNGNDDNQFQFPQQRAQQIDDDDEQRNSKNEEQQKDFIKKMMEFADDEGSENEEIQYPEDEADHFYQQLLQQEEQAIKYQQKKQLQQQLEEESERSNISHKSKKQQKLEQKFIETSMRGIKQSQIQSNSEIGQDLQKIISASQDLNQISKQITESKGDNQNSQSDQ

GST-Pgm(692-768) CRD [3] = target: T2, GST-Pgm(692-768) CRD (Paramecium tetraurelia, UniProt A0DFJ7 692-768); assay: DRaCALA; no competitor DNA; DRaCALA: 25 mM HEPES pH 7.5, 0.1 mg/ml BSA, 0.5 mM DTT, 100 mM NaCl, 25 nM DNA, no competitor, temperature not stated; EMSA: as in earlier paper, 5% acrylamide; conditions: protein: recombinant; tags: N-terminal GST; label: 32P at 5' end of top strand
T2 sequence: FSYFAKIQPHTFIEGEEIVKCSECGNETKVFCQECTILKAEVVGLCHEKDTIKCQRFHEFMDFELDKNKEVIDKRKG

GST-Pgm(692-768) CRD [4] = target: T2, GST-Pgm(692-768) CRD; assay: EMSA; DRaCALA: 25 mM HEPES pH 7.5, 0.1 mg/ml BSA, 0.5 mM DTT, 100 mM NaCl, 25 nM DNA, no competitor, temperature not stated; EMSA: as in earlier paper, 5% acrylamide; conditions: protein: recombinant; tags: N-terminal GST; label: 32P
Pgm(692-768)* CRD = target: T3, Pgm(692-768)* CRD (Paramecium tetraurelia, UniProt A0DFJ7 692-768); assay: NMR (1H-1H NOESY); equimolar DNA; 2 Zn2+ in protein; DRaCALA: 25 mM HEPES pH 7.5, 0.1 mg/ml BSA, 0.5 mM DTT, 100 mM NaCl, 25 nM DNA, no competitor, temperature not stated; EMSA: as in earlier paper, 5% acrylamide; conditions: protein: recombinant; tags: GST cleaved by PreScission; seven linker residues left at N-terminus; blunt
T3 sequence: T2 sequence

Molecule: MBP-Pgm(692–768) (domain or fragment)
- reduction of the ELISA interaction signal relative to unmodified H3(1–19) [1]: 30%

Molecule: H3(1–19) (peptide)
- Kd [2]: 289 µM

B1: IES 51A1835 80-bp substrate (dsDNA)
DNA 1: ACTACTACATAATGCTAAACTCATTTATAGATGGATTGTTTTCCAAGTATCTATATCATCATGTGTTGCTAATAACCCTG
DNA 2: ATCGCAGGGTTATTAGCAACACATGATGATATAGATACTTGGAAAACAATCCATCTATAAATGAGTTTAGCATTATGTAGT
- binding result (MBP-Pgm): binds
- binding result (GST-Pgm(692-768) CRD [3]): no binding

B2: IES 51A4404 left end 70-bp substrate (dsDNA)
DNA 1: CTAGCTTACAACGCAGCTTGCACATCTCTAGTTGATGGTATTGTGGTGTTATTTTAAAAAGTAATATATT
DNA 2: CGATAATATATTACTTTTTAAAATAACACCACAATACCATCAACTAGAGATGTGCAAGCTGCGTTGTAAG
- binding result (GST-Pgm(692-768) CRD [4]): no binding

B3: i1835 (NMR) (dsDNA)
DNA 1: CTACTACATAATGCTAAACTCATTTATAGATGGATTGTTTTCCAAGTATCTATATC
DNA 2: GATATAGATACTTGGAAAACAATCCATCTATAAATGAGTTTAGCATTATGTAGTAG
- binding result (Pgm(692-768)* CRD): no binding

B4: i4404 (NMR) (dsDNA)
DNA 1: GCTTGCACATCTCTAGTTGATGG
DNA 2: CCATCAACTAGAGATGTGCAAGC
- binding result (Pgm(692-768)* CRD): no binding
